In patent US20220412975:

T1: COMP1 candidate peptide, (Donor) GMQQSVRTGLPS (K-Quencher)
T1 chain: GMQQSVRTGLPS

T2: COMP2 candidate peptide, (Donor) SPGFRC(Acm)EAC(Acm)PPGYS (K-Quencher)
T2 chain: SPGFRCEACPPGYS

T3: TSP1-1 substrate, (HiLyteFluor-488)-DELSSMVLELRGLRT-K(QXL520)-NH2
T3 chain: DELSSMVLELRGLRTK

T4: TSP1-2 substrate, (HiLyteFluor-488)-SSMVLELRGLRTIVT-K(QXL520)-NH2
T4 chain: SSMVLELRGLRTIVTK

T5: TSP1-3 substrate, (HiLyteFluor-488)-KVTEENKELANELRR-K(QXL520)-NH2
T5 chain: KVTEENKELANELRRK

T6: TSP1-4 substrate, (HiLyteFluor-488)-EENKELANELRRPPL-K(QXL520)-NH2
T6 chain: EENKELANELRRPPLK

T7: TSP1-5 substrate, (HiLyteFluor-488)-SSMVLELRGLRT-K(QXL520)-NH2
T7 chain: SSMVLELRGLRTK

T8: (HiLyteFluor-488)-DELSSMVLELRGLRT-K(QXL520)-E-NH2
T8 chain: DELSSMVLELRGLRTK

B1: rADAMTS-7 (Rat 1-575)-Flag (protein)
chain: LPTEGRAGLDIVHPVRVDAGGSFLSYELWPRVLRKRDVSAAQASSAFYQLQYQGRELLFNLTTNPYLLAPGFVSEIRRRSNLSNVHIQTSVPTCHLLGDVQDPELEGGFAAISACDGLRGVFQLSNEDYFIEPLDEVPAQPGHAQPHMVYKHKRSGQQDDSRTSGTCGVQGSPELKHQREHWEQRQQKRRQQRSISKEKWVETLVVADSKMVEYHGQPQVESYVLTIMNMVAGLYHDPSIGNPIHITVVRLIILEDEEKDLKITHHADDTLKNFCRWQKNVNMKGDDHPQHHDTAILLTRKDLCATMNHPCETLGLSHVAGLCHPQLSCSVSEDTGLPLAFTVAHELGHSFGIQHDGTGNDCESIGKRPFIMSPQLLYDRGIPLTWSRCSREYITRFLDRGWGLCLDDRPSKGVINFPSVLPGVLYDVNHQCRLQYGPSSAYCEDVDNVCYTLWCSVGTTCHSKMDAAVDGTSCGKNKWCLNGECVPEGFQPETVDGGWSGWSAWSVCSRSCGVGVRSSERQCTQPVPKNKGKYCVGERKRYRLCNLQACPENLYFQGDYKDDDDK
B2: purified ADAMTS-7 E389Q catalytic inactive proteins (protein)
chain: SVSKEKWVETLVVADAKMVEYHGQPQVESYVLTIMNMVAGLFHDPSIGNPIHITIVRLVLLEDEEEDLKITHHADNTLKSFCKWQKSINMKGDAHPLHHDTAILLTRKDLCAAMNRPCETLGLSHVAGMCQPHRSCSINEDTGLPLAFTVAHQLGHSFGIQHDGSGNDCEPVGKRPFIMSPQLLYDAAPLTWSRCSRQYITRFLDRGWGLCLDDPPAKDIIDFPSVPPGVLYDVSHQCRLQYGAYSAFCEDMDNVCHTLWCSVGTTCHSKLDAAVDGTRCGENKWCLSGECVPVGFRPEAV
B3: Rat/human ADAMTS-12 chimera, rPro-hCD (Rat 1-244/Human 241-543)-3xFLAG (protein)
chain: HGRQAQPWPVRFPDPKQEHFIKSLPEYHIVSPVQVDASGHFLSYGLHHPVTGSRKKRAAGGSGDQVYYRISHEEKNLFFNLTVNWEFLSNGYVVERRYGNLSHVKMAASSGQPCHLRGTVLQQGPTIRMGTAALSACQGLTGFFHLPHGDFFIEPVKKHPLTEEGYQPHVIYRRQSYRVPETKEPTCGLKDSLDNSVKQELQREKWERKNWPSRSLSRRSISKERWVETLVVADTKMIEYHGSENVESYILTIMNMVTGLFHNPSIGNAIHIVVVRLILLEEEEQGLKIVHHAEKTLSSFCKWQKSINPKSDLNPVHHDVAVLLTRKDICAGFNRPCETLGLSHLSGMCQPHRSCNINEDSGLPLAFTIAHELGHSFGIQHDGKENDCEPVGRHPYIMSRQLQYDPTPLTWSKCSEEYITRFLDRGWGFCLDDIPKKKGLKSKVIAPGVIYDVHHQCQLQYGPNATFCQEVENVCQTLWCSVKGFCRSKLDAAADGTQCGEKKWCMAGKCITVGKKPESIPGGGGSDYKDHDGDYKDHDIDYKDDDDK

Columns and labels:
[1] = target: T1, COMP1 candidate peptide, (Donor) …
[2] = target: T2, COMP2 candidate peptide, (Donor) …
[3] = target: T3, TSP1-1 substrate, …
[4] = target: T4, TSP1-2 substrate, …
[5] = target: T5, TSP1-3 substrate, …
[6] = target: T6, TSP1-4 substrate, …
[7] = target: T7, TSP1-5 substrate, …
[8] = target: T8, (HiLyteFluor-488)-DELSSMVLELRGLRT-K(QXL5 …)

Row | Protein | kcat [1] [s⁻¹] | kcat [2] [s⁻¹] | FRET peptide cleavage (Relative Fluorescence Units over time) [3] | kcat [3] [s⁻¹] | FRET peptide cleavage (Relative Fluorescence Units over time) [4] | kcat [4] [s⁻¹] | kcat [5] [s⁻¹] | kcat [6] [s⁻¹] | FRET peptide cleavage (Relative Fluorescence Units over time) [7] | kcat [7] [s⁻¹] | FRET peptide cleavage (Relative Fluorescence Units over time) [1] | FRET peptide cleavage (Relative Fluorescence Units over time) [2] | FRET peptide cleavage (Relative Fluorescence Units over time) [5] | FRET peptide cleavage (Relative Fluorescence Units over time) [6] | FRET peptide cleavage (increase of fluorescence intensity) [8]
1 | B1 | 8.17e-06 | 8.33e-06 | Activity data from the rat ADAMTS-7 construct identified TSP1 S1 (SEQ ID NO: 4) as the substrate | 0.000167 | along with S2 and S5 peptides containing the E289⬇L290 cleavage site | 0.000128 | 2.33e-05 | 4.33e-05 | along with S2 and S5 peptides containing the E289⬇L290 cleavage site | 4.17e-05 | – | – | – | – | –
2 | B2 | – | – | Significant activity was not observed with substrates ... with incubation with purified ADAMTS-7 E389Q catalytic inactive proteins (data not shown | – | Significant activity was not observed with substrates ... with incubation with purified ADAMTS-7 E389Q catalytic inactive proteins (data not shown | – | – | – | Significant activity was not observed with substrates ... with incubation with purified ADAMTS-7 E389Q catalytic inactive proteins (data not shown | – | Significant activity was not observed with substrates ... with incubation with purified ADAMTS-7 E389Q catalytic inactive proteins (data not shown | Significant activity was not observed with substrates ... with incubation with purified ADAMTS-7 E389Q catalytic inactive proteins (data not shown | Significant activity was not observed with substrates ... with incubation with purified ADAMTS-7 E389Q catalytic inactive proteins (data not shown | Significant activity was not observed with substrates ... with incubation with purified ADAMTS-7 E389Q catalytic inactive proteins (data not shown | –
3 | B3 | – | – | – | – | – | – | – | – | – | – | – | – | – | – | It was surprisingly found that the same substrate could be used for the paralogs ADAMTS-7 and ADAMTS-12
